The results in this text go back to paper PMC4383860, “Crystal structure of human persulfide dioxygenase: structural basis of ethylmalonic encephalopathy” (Human Molecular Genetics, 2015).

Series [1] deals with the molecule itself. Nature of the series: SEC-MALS; printed as MALS (multi-angle laser light scattering) of hETHE1 after purification, two peaks; self-association. On the technique in general: In gel filtration, larger molecules generally elute earlier.
Series [2] deals with the molecule itself. Nature of the series: native MS; non-denaturing electrospray soft-ionization MS; 15 µM hETHE1 in 15 mM ammonium acetate buffer (pH 7.5); cone voltage 80 V; self-association, dimer.
Series [3] concerns the molecule itself. The experiment in a line: native MS + SEC-MALS; dimer to monomer ratio told for both methods together; self-association, dimer.

B1: human ethylmalonic encephalopathy protein 1 (hETHE1), lacking its 20 residue N-terminal mitochondrial targeting sequence (enzyme, UniProt O95571 21-254, looked up)
chain: APILLRQMFEPVSCTFTYLLGDRESREAVLIDPVLETAPRDAQLIKELGLRLLYAVNTHCHADHITGSGLLRSLLPGCQSVISRLSGAQADLHIEDGDSIRFGRFALETRASPGHTPGCVTFVLNDHSMAFTGDALLIRGCGRTDFQQGCAKTLYHSVHEKIFTLPGDCLIYPAHDYHGFTVSTVEEERTLNPRLTLSCEEFVKIMGNLNLPKPQQIDFAVPANMRCGVQTPTA
modifications: Cys247 refined as cysteinyl sulfinic acid (CSD247) in the crystal; +30 Da seen only in the dimer by non-denaturing mass spectrometry
notes: the start at residue 21 is worked out from that statement; Printed masses: monomer 26 116 Da, dimer 52 232 Da; also called human persulfide dioxygenase; sulphur dioxygenase; not shown: His6, N-terminal, cleaved
Usually stoichiometry N stands for the number of molecules, sites or subunits per partner or assembly. As for B1, the “stoichiometry N” value in series [1] was 4; in series [2] it was 2. For the same protein, the “dimer to monomer ratio” value in series [3] was around 10.
